Measured values reported in publication PMC10948613 (Frontiers in Plant Science, 2024).

T1: ProtA-tagged GLABRA3 (GL3) (Arabidopsis thaliana, UniProt Q9FN69 1-637)
T1 construct: GLABRA3 (GL3), basic helix-loop-helix (bHLH)-like transcription factor, Arabidopsis thaliana; Backbone pTREXdest30; The results write 'GL3-ProtA', but the methods say that the tag is fused to the N-terminus; also called GL3-ProtA; ProtA-tagged GL3; source: HEK293TM cells, transiently expressed, in lysate; not shown: Staphylococcus aureus protein A, N-terminal, kept
T1 sequence (looked up): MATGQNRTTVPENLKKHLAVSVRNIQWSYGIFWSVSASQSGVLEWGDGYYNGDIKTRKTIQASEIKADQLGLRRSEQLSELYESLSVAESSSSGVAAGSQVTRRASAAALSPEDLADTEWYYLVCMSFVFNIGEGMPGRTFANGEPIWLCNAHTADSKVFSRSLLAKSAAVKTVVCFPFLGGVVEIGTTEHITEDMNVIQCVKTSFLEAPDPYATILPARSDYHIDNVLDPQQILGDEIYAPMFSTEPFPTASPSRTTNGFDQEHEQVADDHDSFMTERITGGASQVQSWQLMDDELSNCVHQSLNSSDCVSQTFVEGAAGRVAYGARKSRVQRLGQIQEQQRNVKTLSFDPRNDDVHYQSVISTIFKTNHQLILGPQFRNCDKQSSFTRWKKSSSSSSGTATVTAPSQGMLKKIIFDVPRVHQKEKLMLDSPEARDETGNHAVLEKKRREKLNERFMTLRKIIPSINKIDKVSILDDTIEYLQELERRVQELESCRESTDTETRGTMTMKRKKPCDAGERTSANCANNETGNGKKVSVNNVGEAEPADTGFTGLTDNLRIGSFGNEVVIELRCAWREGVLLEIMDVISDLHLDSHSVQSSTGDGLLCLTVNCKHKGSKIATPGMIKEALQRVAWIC

B1: Renilla-tagged GLABRA1 (GL1) (natural protein, Arabidopsis thaliana, UniProt P27900 1-228, looked up)
chain: MRIRRRDEKENQEYKKGLWTVEEDNILMDYVLNHGTGQWNRIVRKTGLKRCGKSCRLRWMNYLSPNVNKGNFTEQEEDLIIRLHKLLGNRWSLIAKRVPGRTDNQVKNYWNTHLSKKLVGDYSSAVKTTGEDDDSPPSLFITAATPSSCHHQQENIYENIAKSFNGVVSASYEDKPKQELAQKDVLMATTNDPSHYYGNNALWVHDDDFELSSLVMMNFASGDVEYCL
notes: GLABRA1 (GL1), R2R3MYB, Arabidopsis thaliana; Backbone pTREXdest30; also called GL1-Renilla; GL1Renilla; source: HEK293TM cells, transiently expressed, in lysate; not shown: Renilla reniformis luciferase (Rluc), N-terminal, kept
B2: Renilla-tagged CAPRICE (CPC) (natural protein, Arabidopsis thaliana, UniProt O22059 1-94, looked up)
chain: MFRSDKAEKMDKRRRRQSKAKASCSEEVSSIEWEAVKMSEEEEDLISRMYKLVGDRWELIAGRIPGRTPEEIERYWLMKHGVVFANRRRDFFRK
notes: CAPRICE (CPC), R3MYB, Arabidopsis thaliana; Backbone pTREXdest30; also called CPC-Renilla; source: HEK293TM cells, transiently expressed, in lysate; not shown: Renilla reniformis luciferase (Rluc), N-terminal, kept
B3: Renilla-tagged TRIPTYCHON (TRY) (natural protein, Arabidopsis thaliana, UniProt Q8GV05 1-106, looked up)
chain: MDNTDRRRRRKQHKIALHDSEEVSSIEWEFINMTEQEEDLIFRMYRLVGDRWDLIAGRVPGRQPEEIERYWIMRNSEGFADKRRQLHSSSHKHTKPHRPRFSIYPS
notes: TRIPTYCHON (TRY), R3MYB, Arabidopsis thaliana; Backbone pTREXdest30; also called TRY-Renilla; source: HEK293TM cells, transiently expressed, in lysate; not shown: Renilla reniformis luciferase (Rluc), N-terminal, kept
B4: Renilla-tagged TRANSPARENT TESTA GLABRA1 (TTG1) (natural protein, Arabidopsis thaliana, UniProt Q9XGN1 1-341, looked up)
chain: MDNSAPDSLSRSETAVTYDSPYPLYAMAFSSLRSSSGHRIAVGSFLEDYNNRIDILSFDSDSMTVKPLPNLSFEHPYPPTKLMFSPPSLRRPSSGDLLASSGDFLRLWEINEDSSTVEPISVLNNSKTSEFCAPLTSFDWNDVEPKRLGTCSIDTTCTIWDIEKSVVETQLIAHDKEVHDIAWGEARVFASVSADGSVRIFDLRDKEHSTIIYESPQPDTPLLRLAWNKQDLRYMATILMDSNKVVILDIRSPTMPVAELERHQASVNAIAWAPQSCKHICSGGDDTQALIWELPTVAGPNGIDPMSVYSAGSEINQLQWSSSQPDWIGIAFANKMQLLRV
notes: TRANSPARENT TESTA GLABRA1 (TTG1), WD40 protein, Arabidopsis thaliana; Backbone pTREXdest30; also called TTG1-Renilla; Renilla-tagged TTG1; source: HEK293TM cells, transiently expressed, in lysate; not shown: Renilla reniformis luciferase (Rluc), N-terminal, kept

target: T1, ProtA-tagged GLABRA3 (GL3); test: pull-down; LUMIER pull-down: raw HEK293TM extracts of ProtA-tagged GL3 and a Renilla-tagged protein mixed, dilution series of the ratio, Renilla luminescence on the beads; ratios from HA Western blots; single-site reversible binding model; KD dimensionless and relative to the total GL3 concentration; settings: partners not purified

Row | relative KD (KD divided by total GL3) | Binder
1 | 0.5 dimensionless, relative to the total GL3 concentration | B1
2 | 2.3 dimensionless, relative to the total GL3 concentration | B2
3 | 2.7 dimensionless, relative to the total GL3 concentration | B3
4 | 1 dimensionless, relative to the total GL3 concentration | B4
